What was measured:
[1] = molecular target: cynomolgus PD-1 protein (construct not stated) (cynomolgus) (UniProt B0LAJ3); test: ELISA, second round mutagenesis library screen; unit not given
[2] = molecular target: T1, cynomolgus PD-1 protein (construct not stated) (cynomolgus, UniProt B0LAJ3 25-170); test: as above
T1 construct: not shown: tag or Fc carrier of the recombinant (Sino Biological) cynomolgus PD-1
T1 sequence (B0LAJ3 entry or part of it limits assumed, form in doubt): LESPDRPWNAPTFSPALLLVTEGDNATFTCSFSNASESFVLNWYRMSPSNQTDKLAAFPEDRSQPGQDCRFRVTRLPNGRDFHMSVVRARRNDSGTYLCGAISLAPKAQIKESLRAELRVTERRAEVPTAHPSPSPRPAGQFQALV

Chain of cynomolgus PD-1 protein (construct not stated) (cynomolgus) (B0LAJ3 entry or part of it limits assumed): as the sequence (B0LAJ3 entry or part of it limits assumed, form in doubt) above

B1: L1I (antibody, V domains shown)
VH: QVQLVQSGAEVKKPGSSVKVSCKASGFTFTTYYISWVRQAPGQGLEYLGYINMGSGGTNYNEKFKGRVTITADKSTSTAYMELSSLRSEDTAVYYCAIIGYFDYWGQGTMVTVSS
VL: DVVMTQSPLSLPVTLGQPASISCRSSQSLLDSDGNTYLYWFQQRPGQSPRRLIYLVSTLGSGVPDRFSGSGSGTDFTLKISRVEAEDVGVYYCMQLTHAPYTFGQGTKLEIK
Binder B1 has a Bmax [1] of 0.0517.

B2: 2E5 (antibody, V domains shown)
VH: QVQLVQSGAEVKKPGSSVKVSCKASGFTFTTYYISWVRQAPGQGLEYLGYINMGSGGTNYNEKFKGRVTITADKSTSTAYMELSSLRSEDTAVYYCAIIGYFDYWGQGTMVTVSS
VL: DVVMTQSPLSLPVTLGQPASISCRSSQSLLDSDGGTYLYWFQQRPGQSPRRLIYLVSTLGSGVPDRFSGSGSGTDFTLKISRVEAEDVGVYYCMQLTHWPYTFGQGTKLEIK
Binder B2 has a Bmax [2] of 1.72.

B3: 2B1 (antibody, V domains shown)
VH: QVQLVQSGAEVKKPGSSVKVSCKASGFTFTTYYISWVRQAPGQGLEYLGYINMGSGGTNYNEKFKGRVTITADKSTSTAYMELSSLRSEDTAVYYCAIIGYFDYWGQGTMVTVSS
VL: DVVMTQSPLSLPVTLGQPASISCRSSQSLLDSDGNTYLYWFQQRPGQSPRRLIYLVSTLGSGVPDRFSGSGSGTDFTLKISRVEAEDVGVYYCMQLTHWPYTFGQGTKLEIK
B3 was tested, and the Bmax [2] was 1.21.

B4: 1H6 (antibody, V domains shown)
VH: QVQLVQSGAEVKKPGSSVKVSCKASGFTFTTYYISWVRQAPGQGLEYLGYINMGSGGTNYNEKFKGRVTITADKSTSTAYMELSSLRSEDTAVYYCAILGYFDYWGQGTMVTVSS
VL: DVVMTQSPLSLPVTLGQPASISCRSSQSLLDSDGGTYLYWFQQRPGQSPRRLIYLVSTLGSGVPDRFSGSGSGTDFTLKISRVEAEDVGVYYCMQLTHWPYTFGQGTKLEIK
For B4, the Bmax [2] was 0.317.

B5: 8C10 (antibody, V domains shown)
VH: QVQLVQSGAEVKKPGSSVKVSCKASGFTFTTYYISWVRQAPGQGLEYLGYINMGSGGTNYNEKFKGRVTITADKSTSTAYMELSSLRSEDTAVYYCAIIGYFDYWGQGTMVTVSS
VL: DVVMTQSPLSLPVTLGQPASISCRSSQSLLDSDGQTYLYWFQQRPGQSPRRLIYLVSTLGSGVPDRFSGSGSGTDFTLKISRVEAEDVGVYYCMQLTHENYTFGQGTKLEIK
B5 showed a Bmax [2] of 1.11.

B6: 5C4 (antibody, V domains shown)
VH: QVQLVQSGAEVKKPGSSVKVSCKASGFTFTTYYISWVRQAPGQGLEYLGYINMGSGGTNYNEKFKGRVTITADKSTSTAYMELSSLRSEDTAVYYCAILGYFDYWGQGTMVTVSS
VL: DVVMTQSPLSLPVTLGQPASISCRSSQSLLDSDGQTYLYWFQQRPGQSPRRLIYLVSTLGSGVPDRFSGSGSGTDFTLKISRVEAEDVGVYYCMQLTHEPYTFGQGTKLEIK
B6 showed a Bmax [2] of 0.258.

B7: 1G10 (antibody, V domains shown)
VH: QVQLVQSGAEVKKPGSSVKVSCKASGFTFTTYYISWVRQAPGQGLEYLGYINMGSGGTNYNEKFKGRVTITADKSTSTAYMELSSLRSEDTAVYYCAILGYFDYWGQGTMVTVSS
VL: DVVMTQSPLSLPVTLGQPASISCRSSQSLLDSDGATYLYWFQQRPGQSPRRLIYLVSTLGSGVPDRFSGSGSGTDFTLKISRVEAEDVGVYYCMQLTHWPYTFGQGTKLEIK
B7 was tested, and the Bmax [2] was 1.08.

B8: 2C2 (antibody, V domains shown)
VH: QVQLVQSGAEVKKPGSSVKVSCKASGFTFTTYYISWVRQAPGQGLEYLGYINMGSGGTNYNEKFKGRVTITADKSTSTAYMELSSLRSEDTAVYYCAIIGYFDYWGQGTMVTVSS
VL: DVVMTQSPLSLPVTLGQPASISCRSSQSLLDSDGATYLYWFQQRPGQSPRRLIYLVSTLGSGVPDRFSGSGSGTDFTLKISRVEAEDVGVYYCMQLTHWPYTFGQGTKLEIK
Binder B8 has a Bmax [2] of 1.67.

B9: 2G4 (antibody, V domains shown)
VH: QVQLVQSGAEVKKPGSSVKVSCKASGFTFTTYYISWVRQAPGQGLEYLGYINMGSGGTNYNEKFKGRVTITADKSTSTAYMELSSLRSEDTAVYYCAIIGYFDYWGQGTMVTVSS
VL: DVVMTQSPLSLPVTLGQPASISCRSSQSLLDSDGSTYLYWFQQRPGQSPRRLIYLVSTLGSGVPDRFSGSGSGTDFTLKISRVEAEDVGVYYCMQLTHWPYTFGQGTKLEIK
With B9 the Bmax [2] was 1.72.
